Test results: US20080009025

Legend:
[1] = molecular target: PDKtide (39 amino acid polypeptide, T308tide fused to PIFtide)
T308tide = molecular target: T1, T308tide
T1 chain: KTFCGTPEYLAPEV

[2] = molecular target: GST-ΔPH-PKBα[S473D], P31749
[3] = molecular target: GST-PKBα[F472A] (full length), P31749
[4] = molecular target: His-412E-p70 S6K-T2, P23443
[5] = molecular target: GST-PKBα[S473D] (full length), P31749
D978A-PIFtide = molecular target: T2, D978A-PIFtide
T2 chain: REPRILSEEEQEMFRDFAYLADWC

[6] = substrate: PIF peptide with Asp978 changed to phosphoserine
[7] = molecular target: GST-PKBα (full length), P31749
[8] = molecular target: T3, PIFtide (24 residue synthetic peptide encompassing the PDK1 binding site on PIF)
T3 chain: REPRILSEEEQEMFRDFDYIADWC

[9] = molecular target: His-p70 S6K-T2 (p70 S6K with N-terminal His tag lacking the carboxy terminal 104 residues), P23443
[10] = molecular target: GST-SGK1[T422D] (lacking the N-terminal 60 amino acids), O00141
[11] = molecular target: GST-SGK1 (lacking the N-terminal 60 amino acids), O00141
Sequence of GST-SGK1 (lacking the N-terminal 60 amino acids), O00141 (O00141 whole entry, looked up): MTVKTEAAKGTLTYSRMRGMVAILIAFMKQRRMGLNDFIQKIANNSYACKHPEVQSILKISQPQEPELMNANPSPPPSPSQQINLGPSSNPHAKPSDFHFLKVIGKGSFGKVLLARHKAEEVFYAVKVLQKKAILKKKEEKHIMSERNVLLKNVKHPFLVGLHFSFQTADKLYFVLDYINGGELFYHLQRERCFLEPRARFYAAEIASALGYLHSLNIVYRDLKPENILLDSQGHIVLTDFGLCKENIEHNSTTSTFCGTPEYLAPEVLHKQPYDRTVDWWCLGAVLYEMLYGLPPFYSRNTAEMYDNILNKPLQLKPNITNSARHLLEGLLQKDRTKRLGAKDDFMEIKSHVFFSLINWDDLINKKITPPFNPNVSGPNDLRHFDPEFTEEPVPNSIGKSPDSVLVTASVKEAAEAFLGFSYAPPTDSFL

Sequence of GST-SGK1[T422D] (lacking the N-terminal 60 amino acids), O00141 (O00141 whole entry, looked up, stated change not applied): as the sequence (O00141 whole entry, looked up) above
Sequence of His-412E-p70 S6K-T2, P23443 (P23443 whole entry, looked up): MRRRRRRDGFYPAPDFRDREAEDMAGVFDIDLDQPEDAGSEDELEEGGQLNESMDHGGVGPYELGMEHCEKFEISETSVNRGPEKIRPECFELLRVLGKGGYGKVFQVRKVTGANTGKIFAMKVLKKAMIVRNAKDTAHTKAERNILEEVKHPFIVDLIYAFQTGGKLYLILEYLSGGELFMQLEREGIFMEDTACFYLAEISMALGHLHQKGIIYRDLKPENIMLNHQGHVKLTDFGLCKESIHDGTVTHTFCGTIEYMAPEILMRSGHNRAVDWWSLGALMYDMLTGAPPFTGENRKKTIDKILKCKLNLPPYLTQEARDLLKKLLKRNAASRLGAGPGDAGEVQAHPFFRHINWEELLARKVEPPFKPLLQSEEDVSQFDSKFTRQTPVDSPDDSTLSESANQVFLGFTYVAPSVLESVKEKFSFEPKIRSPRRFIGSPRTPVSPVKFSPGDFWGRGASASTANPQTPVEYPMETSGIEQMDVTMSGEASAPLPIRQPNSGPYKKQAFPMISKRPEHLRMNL
Sequence of His-p70 S6K-T2 (p70 S6K with N-terminal His tag lacking the carboxy terminal 104 residues), P23443 (P23443 whole entry, looked up): as above
Sequence of GST-ΔPH-PKBα[S473D], P31749 (P31749 whole entry S473D, looked up): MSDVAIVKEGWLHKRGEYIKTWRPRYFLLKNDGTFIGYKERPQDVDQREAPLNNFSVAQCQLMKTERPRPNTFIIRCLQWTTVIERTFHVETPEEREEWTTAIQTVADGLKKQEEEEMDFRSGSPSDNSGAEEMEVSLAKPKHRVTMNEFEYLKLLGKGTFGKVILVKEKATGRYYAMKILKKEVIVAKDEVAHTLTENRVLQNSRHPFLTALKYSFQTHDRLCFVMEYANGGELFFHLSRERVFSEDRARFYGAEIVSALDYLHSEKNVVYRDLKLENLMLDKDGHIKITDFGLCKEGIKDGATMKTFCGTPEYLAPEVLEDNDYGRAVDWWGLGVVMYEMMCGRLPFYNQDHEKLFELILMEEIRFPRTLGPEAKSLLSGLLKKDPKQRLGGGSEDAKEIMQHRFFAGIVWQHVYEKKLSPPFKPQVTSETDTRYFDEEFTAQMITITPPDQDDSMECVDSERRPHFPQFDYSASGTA
Sequence of GST-PKBα[S473D] (full length), P31749 (P31749 whole entry S473D, looked up): as above
Sequence of GST-ΔPH-PKBα, P31749 (P31749 whole entry, looked up, stated change not applied): as the sequence (P31749 whole entry S473D, looked up) above, with D473S counted along it
Sequence of GST-PKBα (full length), P31749 (P31749 whole entry, looked up): as the sequence (P31749 whole entry S473D, looked up) above, with D473S counted along it
Sequence of GST-PKBα[F472A] (full length), P31749 (P31749 whole entry F472A, looked up): as the sequence (P31749 whole entry S473D, looked up) above, with F472A, D473S counted along it

B1: His-PDK1 (PDK1 residues 52-556 with an N-terminal hexahistidine tag) (protein)
chain: HHHHHHDGTAAEPRPGAGSLQHAQPPPQPRKKRPEDFKFGKILGEGSFSTVVLARELATSREYAIKILEKRHIIKENKVPYVTRERDVMSRLDHPFFVKLYFTFQDDEKLYFGLSYAKNGELLKYIRKIGSFDETCTRFYTAEIVSALEYLHGKGIIHRDLKPENILLNEDMHIQITDFGTAKVLSPESKQARANSFVGTAQYVSPELLTEKSACKSSDLWALGCIIYQLVAGLPPFRAGNEYLIFQKIIKLEYDFPEKFFPKARDLVEKLLVLDATKRLGCEEMEGYGPLKAHPFFESVTWENLHQQTPPKLTAYLPAMSEDDEDCYGNYDNLLSQFGCMQVSSSSSSHSLSASDTGLPQRSGSNIEQYIHDLDSNSFELDLQFSEDEKRLLLEKQAGGNPWHQFVENNLILKMGPVDKRKGLFARRRQLLLTEGPHLYYVDPVNKVLKGEIPWSQELRPEAKNFKTFFVHTPNRTYYLMDPSGNAHKWCRKIQEVWRQRYQSHPDAAVQ
rate of phosphorylation at 100 µM, against T308tide [1]: PDKtide was phosphorylated at a rate over 100-fold greater than that using T308tide
Km of PDK1 for the peptide substrate (T308tide): compared to >10 mM for T308tide

B2: GST-PDK1 wild type (full length PDK1, residues 1-556, N-terminal GST) (protein)
chain: MARTTSQLYDAVPIQSSVVLCSCPSPSMVRTQTESSTPPGIPGGSRQGPAMDGTAAEPRPGAGSLQHAQPPPQPRKKRPEDFKFGKILGEGSFSTVVLARELATSREYAIKILEKRHIIKENKVPYVTRERDVMSRLDHPFFVKLYFTFQDDEKLYFGLSYAKNGELLKYIRKIGSFDETCTRFYTAEIVSALEYLHGKGIIHRDLKPENILLNEDMHIQITDFGTAKVLSPESKQARANSFVGTAQYVSPELLTEKSACKSSDLWALGCIIYQLVAGLPPFRAGNEYLIFQKIIKLEYDFPEKFFPKARDLVEKLLVLDATKRLGCEEMEGYGPLKAHPFFESVTWENLHQQTPPKLTAYLPAMSEDDEDCYGNYDNLLSQFGCMQVSSSSSSHSLSASDTGLPQRSGSNIEQYIHDLDSNSFELDLQFSEDEKRLLLEKQAGGNPWHQFVENNLILKMGPVDKRKGLFARRRQLLLTEGPHLYYVDPVNKVLKGEIPWSQELRPEAKNFKTFFVHTPNRTYYLMDPSGNAHKWCRKIQEVWRQRYQSHPDAAVQ
relative phosphorylation of the substrate by PDK1 in vitro (PKB[S473D] = 100), +PIFtide [2]: 0.2 relative
relative phosphorylation of the substrate by PDK1 in vitro (PKB[S473D] = 100), no PIFtide [2]: 0.9 relative
rate of phosphorylation by PDK1 in vitro, against the wild type enzyme [3]: PKB[F472A] was phosphorylated at a similar rate to the wild type PKB
relative phosphorylation of the substrate by PDK1 in vitro (PKB[S473D] = 100), +PIFtide [4]: 7.4 relative
relative phosphorylation of the substrate by PDK1 in vitro (PKB[S473D] = 100), no PIFtide [4]: 54 relative
relative phosphorylation of the substrate by PDK1 in vitro (PKB[S473D] = 100), +PIFtide [5]: 85.4 relative
relative phosphorylation of the substrate by PDK1 in vitro (this value taken as 100; 2.6 mol/mol PDK1/min), no PIFtide [5]: 100 relative
phosphorylation of GST-p70 S6K-T2 by GST-PDK1 in vitro (32P autoradiography), 4 µM peptide (D978A-PIFtide): poorly inhibited the phosphorylation of GST-p70 S6K-T2 by PDK1 slightly
phosphorylation of GST-p70 S6K-T2 by GST-PDK1 in vitro (32P autoradiography), 4 µM peptide [6]: prevented PDK1 from phosphorylating GST-p70 S6K-T2
relative phosphorylation of the substrate by PDK1 in vitro (PKB[S473D] = 100), +PIFtide [7]: 19.3 relative
relative phosphorylation of the substrate by PDK1 in vitro (PKB[S473D] = 100), no PIFtide [7]: 28 relative
phosphorylation of GST-p70 S6K-T2 by GST-PDK1 in vitro (32P autoradiography), 1.5 µM (GST-D978A-PIF): poorly inhibited the phosphorylation of GST-p70 S6K-T2 by PDK1 slightly
phosphorylation of GST-p70 S6K-T2 (wt and 252A) at Thr412 by wt-GST-PDK1, T412-P immunoblot [8]: band in every lane without PIF peptide, no band in the neighbouring lane with PIF peptide (4 µM), for PDK1 from 293 cells and from E. coli
phosphorylation of GST-p70 S6K-T2 at Thr412 by GST-PDK1 (T412-P immunoblot), 4 µM peptide [8]: The 24 residue PIF peptide prevented PDK1 from phosphorylating the p70 S6K at Thr412
relative phosphorylation of the substrate by PDK1 in vitro (PKB[S473D] = 100), +PIFtide (GST-ΔPH-PKBα, P31749): 0.25 relative
relative phosphorylation of the substrate by PDK1 in vitro (PKB[S473D] = 100), no PIFtide (GST-ΔPH-PKBα, P31749): 0.4 relative
relative phosphorylation of the substrate by PDK1 in vitro (32P, SDS-PAGE, PhosphoImager; PKB[S473D] with PtdIns(3,4,5)P3 = 100), no PIFtide [9]: 10.4 relative
relative phosphorylation of the substrate by PDK1 in vitro (PKB[S473D] = 100), +PIFtide [9]: 0.58 relative
relative phosphorylation of the substrate by PDK1 in vitro (PKB[S473D] = 100), +PIFtide [10]: 9.6 relative
relative phosphorylation of the substrate by PDK1 in vitro (PKB[S473D] = 100), no PIFtide [10]: 71 relative
relative phosphorylation of the substrate by PDK1 in vitro (PKB[S473D] = 100), +PIFtide [11]: 3.8 relative
relative phosphorylation of the substrate by PDK1 in vitro (PKB[S473D] = 100), no PIFtide [11]: 8 relative

B3: GST-PDK1[L155E] (protein)
chain: MARTTSQLYDAVPIQSSVVLCSCPSPSMVRTQTESSTPPGIPGGSRQGPAMDGTAAEPRPGAGSLQHAQPPPQPRKKRPEDFKFGKILGEGSFSTVVLARELATSREYAIKILEKRHIIKENKVPYVTRERDVMSRLDHPFFVKLYFTFQDDEKEYFGLSYAKNGELLKYIRKIGSFDETCTRFYTAEIVSALEYLHGKGIIHRDLKPENILLNEDMHIQITDFGTAKVLSPESKQARANSFVGTAQYVSPELLTEKSACKSSDLWALGCIIYQLVAGLPPFRAGNEYLIFQKIIKLEYDFPEKFFPKARDLVEKLLVLDATKRLGCEEMEGYGPLKAHPFFESVTWENLHQQTPPKLTAYLPAMSEDDEDCYGNYDNLLSQFGCMQVSSSSSSHSLSASDTGLPQRSGSNIEQYIHDLDSNSFELDLQFSEDEKRLLLEKQAGGNPWHQFVENNLILKMGPVDKRKGLFARRRQLLLTEGPHLYYVDPVNKVLKGEIPWSQELRPEAKNFKTFFVHTPNRTYYLMDPSGNAHKWCRKIQEVWRQRYQSHPDAAVQ
relative phosphorylation of the substrate by PDK1-L155E in vitro (PKB[S473D] with wild type PDK1 = 100), +PIFtide [2]: 0.15 relative
relative phosphorylation of the substrate by PDK1-L155E in vitro (PKB[S473D] with wild type PDK1 = 100), no PIFtide [2]: 0.18 relative
relative phosphorylation of the substrate by PDK1-L155E in vitro (PKB[S473D] with wild type PDK1 = 100), +PIFtide [4]: 0.108 relative
relative phosphorylation of the substrate by PDK1-L155E in vitro (PKB[S473D] with wild type PDK1 = 100), no PIFtide [4]: 0.5 relative
relative phosphorylation of the substrate by PDK1-L155E in vitro (PKB[S473D] with wild type PDK1 = 100), +PIFtide [5]: 162 relative
relative phosphorylation of the substrate by PDK1-L155E in vitro (PKB[S473D] with wild type PDK1 = 100), no PIFtide [5]: 178 relative
relative phosphorylation of the substrate by PDK1-L155E in vitro (PKB[S473D] with wild type PDK1 = 100), +PIFtide [7]: 35 relative
relative phosphorylation of the substrate by PDK1-L155E in vitro (PKB[S473D] with wild type PDK1 = 100), no PIFtide [7]: 35 relative
relative phosphorylation of the substrate by PDK1-L155E in vitro (PKB[S473D] with wild type PDK1 = 100), +PIFtide (GST-ΔPH-PKBα, P31749): 0.25 relative
relative phosphorylation of the substrate by PDK1-L155E in vitro (PKB[S473D] with wild type PDK1 = 100), no PIFtide (GST-ΔPH-PKBα, P31749): 0.23 relative
relative phosphorylation of the substrate by PDK1-L155E in vitro (PKB[S473D] with wild type PDK1 = 100), +PIFtide [9]: 0.27 relative
relative phosphorylation of the substrate by PDK1-L155E in vitro (PKB[S473D] with wild type PDK1 = 100), no PIFtide [9]: 0.6 relative
relative phosphorylation of the substrate by PDK1-L155E in vitro (PKB[S473D] with wild type PDK1 = 100), +PIFtide [10]: 3.4 relative
relative phosphorylation of the substrate by PDK1-L155E in vitro (PKB[S473D] with wild type PDK1 = 100), no PIFtide [10]: 3.5 relative
relative phosphorylation of the substrate by PDK1-L155E in vitro (PKB[S473D] with wild type PDK1 = 100), +PIFtide [11]: 2.4 relative
relative phosphorylation of the substrate by PDK1-L155E in vitro (PKB[S473D] with wild type PDK1 = 100), no PIFtide [11]: 3.3 relative
